US20220298212A1 (Molecular Partners, published 2022)

Target: T1, biotinylated human 4-1BB (recombinant Fc fusion protein of the extracellular domain of human 4-1BB) (human, UniProt Q07011 24-186, biotinylated (site not stated))
T1 construct: Bought from BPS Bioscience; tie to the Fc fusion is by the Materials paragraph; also called h4-1BB; CD137; not shown: Fc part of the purchased fusion (BPS Bioscience)
Assay: SPR (ProteOn), biotinylated human 4-1BB on NLC chip, PBST
Method: Briefly, biotinylated human 4-1 BB was diluted in PBST (PBS, pH 7.4 containing 0.005% Tween 20®) and coated on a NLC chip (BioRad) to a level of around 320 resonance units (RU) (600 RU for single trace SPR measurements). The interaction of ankyrin repeat protein and h4-1 BB was then measured by injecting 200 μl running buffer (PBS, pH 7.4 containing 0.005% Tween 20®) containing serial dilutions of ankyrin repeat proteins covering a concentration range between 50 nM and 0.5 nM for multi-trace SPR measurements or 50 nM for single trace measurements (on-rate measurement), followed by a running buffer flow for at least 30 minutes at a constant flow rate of 100 μl/min (off-rate measurement). The regeneration was performed using 30 μl of 10 mM Glycine pH 2 followed by 30 μl of 124 mM H₃PO₄. The signals (i.e. resonance unit (RU) values) of the interspots and a reference injection (i.e. injection of running buffer only) were subtracted from the RU traces obtained after injection of ankyrin repeat protein (double-referencing). Based on the SPR traces obtained from the on-rate and off-rate measurements, the on- and off-rate of the corresponding ankyrin repeat protein—4-1 BB interaction was determined.
Dissociation constants (KD) were calculated from the estimated on- and off-rates using standard procedures known to the person skilled in the art.

Binder	Kd
DARPin® protein #1 (designed binder) MRGSHHHHHHGSDLGQKLLKAAQEGQDDEVRELLKAGADVNAKDLRGITPLHVAAWQGHLEIVEVLLKAGADVNAKDSKGETPLHLAAFRGHLEIVEVLLKAGADVNAQDQQGETPADLAALAGHVDIAEVLQKAA	0.47 nM
DARPin® protein #17 (designed binder) MRGSHHHHHHGSDLGEKLLYAAYYGQDDEVRILLAAGADVNAKDHVGLTPLHYAAAIGHLEIVEVLLKAGADVNAKDHYGYTPLHYAAYKGHLEIVEVLLKAGADVNAQDSAGHTPADLAAHHGHEDIAEVLQKLN	0.5 nM
DARPin® protein #5 (designed binder) MRGSHHHHHHGSDLGKKLLEAARAGQDDEVRELLKAGADVNAKDQEHGSTPLHLAANYGHLEIVEVLLKAGADVNAKNWWGNTPLHLAAVYGHLEIVEVLLKAGADVNAKDNHGHTPLHLAAWYGHLEIVEVLLKAGADVNAQDKSGKTPADLAADAGHEDIAEVLQKAA	0.35 nM
DARPin® protein #4 (designed binder) MRGSHHHHHHGSDLGKKLLEAARAGQDDEVRELLKAGADVNAKDTYGETPLHLAAWKGHLEIVEVLLKAGADVNAKDSIGITPLHVAAHHGHLEIVEVLLKAGADVNAKDKWGRTPLHLAALLGHLEIAEVLLKAGADVNAQDKSGKTPADLAADAGHDDIAEVLQKLN	2.25 nM
DARPin® protein #25 (designed binder) MRGSHHHHHHGSDLGKKLLEAARAGQDDEVRELLKAGADVNAKDEWGETPLHLAAWKGHLEIVEVLLKAGADVNAKDSIGITPLHVAAHHGHLEIVEVLLKAGADVNAKDKWGRTPLHLAALLGHLEIVEVLLKAGADVNAQDKSGKTPADLAADAGREDIAEVLQKLN	1.56 nM
DARPin® protein #19 (designed binder) MRGSHHHHHHGSDLGKKLLEAARAGQDDEVRELLKAGADVNAKDTHGWTPLHVAALEGHLEIVEVLLKAGAYVNAKDEWGQTPLHVAAWRGHLEIVEVLLKAGADVNAKDRYGWTPLHIAAWLGHLEIAEVLLKAGADVNAQDKSGKTPADLAADAGQEDIVEVLQKLN	1.6 nM
DARPin® protein #21 (designed binder) MRGSHHHHHHGSDLGEKLLTAAYYGQDDEVRILLAAGADVNAKDKQGLTPLHYAAAVGHLEIVEVLLKAGTDVNAKDFYGETPLHLAASRGHLEIVEVLLKAGADVNAQDKSGKTPADLAADAGHEDIAEVLQKAA	0.16 nM
DARPin® protein #20 (designed binder) MRGSHHHHHHGSDLGEKLLHAAYYGQDDEVRILLAAGADVNAKDDQGLTPLHLAAAIGHLEIVEVLLKAGADVNAKDAYGETPLHLAARRGHLEIVEVLLKAGADVNAQDKSGKTPADLAADAGHEDIAEVLQKAA	0.48 nM
DARPin® protein #14 (designed binder) MRGSHHHHHHGSDLGQKLLYAAFYGQDDEVRILLAAGADVNAKDFFGTTPLHWAAHAGHLEIVEVLLKAGADVNAKDQWGTTPLHYAAYYGHLEIVEVLLKAGADVNAQDDKGFTPADLAAIVGHEDIAEVLQKLN	0.51 nM
DARPin® protein #12 (designed binder) MRGSHHHHHHGSDLGQKLLHTAYDGQDDEVRILLAAGADVNAKDFFGTTPLHWAAHAGHLEIVEVLLKAGADVNAKDQWGTTPLHYAAYYGHLEIVEVLLKAGADVNAQDDKGFTPADLAAIVGHEDIAEVLQKLN	0.74 nM
DARPin® protein #15 (designed binder) MRGSHHHHHHGSDLGQKLLYAAYYGQDDEVRILLAAGADVNAKDFFGTTPLHWAAHAGHLEIVEVLLKAGADVNAKDQWGTTPLHYAAYQGHLEIVEVLLKAGADVNAQDTTGATPADLAAQAGHEDIAEVLQKLN	5 nM
DARPin® protein #22 (designed binder) MRGSHHHHHHGSDLGEKLLWAAWEGQGDEVRILLAAGADVNAKDLTGRTPLHFAAHSGHLEIVEVLLKAGADVNAKDNAGRTPLHLAAELGHLEIVEVLLKAGADVNAQDKSGKTPADLAADAGHEDIAEVLQKAA	0.13 nM
DARPin® protein #23 (designed binder) MRGSHHHHHHGSDLGEKLLWAAYLGQDDEVRILLAAGADVNAKDATGRTPLHFAAHSGHLEIVEVLLKAGADVNAKDNAGRTPLHLAAELGHLEIVEVLLKAGADVNAQDKSGKTPADLAADAGHEDIAEVLQKAA	0.6 nM
DARPin® protein #26 (designed binder) MRGSHHHHHHGSDLGKKLLEAARAGQDDEVRELLKAGADVNAKDHAGQTPLHIAALRGHLEIVEVLLKAGADVNAKDKYGQTPLHLAAILGHLEIVEVLLKAGADVNAKDQEGDTPLHIAAWQGHLEIVEVLLKAGADVNAQDKSGKTPADLAADAGHEDITEVLQKLN	0.83 nM
DARPin® protein #9 (designed binder) MRGSHHHHHHGSDLGEKLLHAAYYGQDDEVRILLAAGADVNAKDNIGVTPLHFAAYFGHLEIVEVLLKAGADVNAQDYYGKTPADLAAYHGHEDIAEVLQKLN	0.19 nM
DARPin® protein #10 (designed binder) MRGSHHHHHHGSDLGDKLLHAAYYGQDDEVRILLAAGADVNAKDNIGVTPLHFAAYFGHLEIVEVLLKAGADVNAQDYYGKTPADLAAYHGHEDIAEVLQKLN	0.25 nM

Continued by falling Kd, values first:

Kd	Binder
3.96 nM	DARPin® protein #27 (designed binder) MRGSHHHHHHGSDLGKKLLEAARAGQDDEVRELLKAGADVNAKDHQGATPLHNAAWAGHLEIVEVLLKAGADVNAKDKAGYTPLHIAAITGHLEIVEVLLKAGADVNAKDQWGKTPLHLAAQVGHLEIVEVLLKAGADVNAQDKSGKTPADLAADAGHEDIAKVLQKLN
2.58 nM	DARPin® protein #6 (designed binder) MRGSHHHHHHGSDLGKKLLVAANVGQDDEVRILLAAGADVNAKDYHGYTPLHHAATYGHLEIVEVLLKAGADVNAKDQTGLTPLHLAAAKGHLEIVEVLLKAGADVNAQDHHGYTPADLAAFVGHEDIAVVLQKLN
1.6 nM	DARPin® protein #16 (designed binder) MRGSHHHHHHGSDLGAKLLNAAFFGQDDEVRILLAAGADVNAKDDYGHTPLHWAAVTGHLEIVEVLLKAGADVNAKDWLGETPLHHAAYEGHLEIVEVLLKAGADVNAQDEQGETPADLAAYEGHEDIAEVLLKAGADVNAQDDKGFTPADLAAIVGHEDIAEVLQKLN
1.47 nM	DARPin® protein #18 (designed binder) MRGSHHHHHHGSDLGYKLLYAAAYGQDDEVRILLAAGADVNAKDQYGETPLHHAASHGHLEIVEVLLKAGADVNAKDTLGDTPLHLAAVVGHLEIVEVLLKAGADVNAQDTEGKTPADLAAYTGHEDIAEVLQKLN
1.25 nM	DARPin® protein #3 (designed binder) MRGSHHHHHHGSDLGRKLLQAAQLGQDDEVRELLKAGADVNAKDSRGITPLHVAAWQGHLEIVEVLLKASADVNAKDHAGITPLHLAAFLGHLEIVEVLLKAGADVNAQDQEGRTPADLAALQGHEDIAKVLQKLN
0.86 nM	DARPin® protein #2 (designed binder) MRGSHHHHHHGSDLGKKLLVAANVGQDDEVRILLAAGADVNAKDYHGYTPLHHAATYGHLEIVEVLLKAGADVNAKDQTGLTPLHLAAAKGHLEIVEVLLKAGADVNAQDHHGYTPADLAAFVGHEDIAVVLQKLN
0.69 nM	DARPin® protein #13 (designed binder) MRGSHHHHHHGSDLGLKLLYAAAEGQDDEVRILLAAGADVNAKDTRGQTPLHYAAWFGHLEIVEVLLKAGADVNAKDWSGDTPLHVAAWRGHLEIVEVLLKAGADVNAQDNSGNTPADLAAWIGHEDIAEVLQKLN
0.54 nM	DARPin® protein #7 (designed binder) MRGSHHHHHHGSDLGSKLLNAARKGQDDEVRILLAAGADVNAKDYYGQTPLHLAAVFGHLEIVEVLLKAGADVNAKDVLGRTPLHVAAYAGHLEIAEVLLKAGADVNAQDFDGFTPADLAAYVGLEDIAEVLQKLN
0.38 nM	DARPin® protein #11 (designed binder) MRGSHHHHHHGSDLGWKLLSAAWQGQDDEVRILLAAGADVNAKDTFGTTPLHWAAHAGHLEIVEVLLKAGADVNAKDQWGTTPLHYAAYYGHLEIVEVLLKAGADVNAQDDKGFTPADLAAIVGHEDIAEVLQKLN
0.29 nM	DARPin® protein #24 (designed binder) MRGSHHHHHHGSDLGEKLLNAAYYGQDDEVRILLAAGADVNAKDVKGETPLHYAAAVGHLEIVEVLLKAGADVNAKDQYGATPLHLAAYKGHLEIVEVLLKAGADVNAQDKSGKTPADLAADAGHEDIAEVLQKAA
0.02 nM	DARPin® protein #8 (designed binder) MRGSHHHHHHGSDLGKKLLEAARAGQDDEVRELLKAGADVNAKDRFGSTPLHIAAREGHLEIVEVLLKAGADVNAKDSWGATPLHIAAWRGHLEIVEVLLKAGADVNAKDRWGRTPLHIAAWTGHLEIVEVLLKACADVNAQDKSGKTPADLAADVGLEDIAEVLQKLN
